Reference: the supplement of paper PMC10567573
± gives the standard deviation.

Test: protein stability index of a GFP-peptide fusion (GPS, HEK-293T) (PSI 1-6); higher = more stable
[1] = treatment: DMSO, c terminus: a fixed tail appended
[2] = treatment: MLN4924 1 uM, 8 h, c terminus: a fixed tail appended
[3] = treatment: DMSO, c terminus: native
[4] = treatment: MLN4924 1 uM, 8 h, c terminus: native
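Also: 24-mer peptide tiles fused after GFP, lentivirally expressed, FACS-sorted into six equal bins by GFP/DsRed ratio, decoded by Illumina sequencing, PSI is the read-weighted mean bin number.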

Sequence	protein stability index [1]	protein stability index [2]	protein stability index [3]	protein stability index [4]
VLTLPFDVVKTQRQVALGAMEAVR [SLC25A39]	2.51 ± 0.36	2.71 ± 0.26		
VNIMRTYTYEKLLWTTSRVLKVLS [CTNNB1]	2.18 ± 0.14	2.41 ± 0.67		
VNSYYSSPAQQVPKNPALEAFLAQ [TOR1AIP2]	3.45 ± 0.36	3.66 ± 0.25		
VPPRMGSRAGGPTTPLSPTRLSRL [LMNB1]	3.92 ± 0.57	3.85 ± 0.56		
VQAPRWGNPRALSFVLSSLQLGEG [OAS1]	2.31 ± 0.2	2.24 ± 0.22		
VQPCSAVHLLLKKVLFALCALNAL [FAM189A2]	2.26 ± 0.37	2.35 ± 0.6		
VQSLCAKHGIEYQSKPLLSAFADI [FADS1]	2.31 ± 0.3	2.32 ± 0.26		
VRAAQLCSQHWGGMASFRFPETTF [TBX6]	2.48 ± 0.59	2.1 ± 0.34		
VRKVPPGYSIKVFDFERSGLQHAP [SMAD6]	2.31 ± 0.33	2.63 ± 0.035		
VSSNNRLVVTGSGEHASVYQITY [TLE6]			2.7 ± 0.26	2.68 ± 0.23
VSWFGSPTTSFLSISKLSPFSEFF [PWWP2B]	2.32 ± 0.62	2.35 ± 0.41		
VTQPCGDCGTIQENWVCLSCYQVY [HDAC6]	2.89 ± 0.57	2.96 ± 0.7		
VTTYLHKDYNNLWIIKKHNTNSDP [POMT2]	2.31 ± 0.48	2.5 ± 0.23		
VVGGAMFFIGFTALVIMWQKHYVY [COX4I1]	3.11 ± 0.29	3.24 ± 0.49		
VVLCEGVKWLSFHSGYDFGYLIKI [CNOT7]	2.87 ± 0.36	3.09 ± 1.2		
VVLLFETALLSSGFSLEDPQTHSN [HSP90AB1]		2.83 ± 0.84		
VVTTEHILVSVAAGVSLSTLEELL [PYCR3]	3.04 ± 0.72	2.78 ± 0.66		
VYDNEKKLQLQLNETKSQAFVSNS [PLD5]	4.48 ± 0.47	4.33 ± 0.19		
VYEDETKVVHAVDGTAENGIHPLS [PALM]	4.88 ± 0.24	5.11 ± 0.11		
VYRFVCDLQNLLGFTPEELHAILG [ETS2]	2.21 ± 0.41	2.19 ± 0.11		
VYTETVHVTVENVQELLPAACLLQ [KLHL12]	2.12 ± 0.52	1.91 ± 0.26		
WAEAECQRQQLPVTFGNKQKVLGK [BTBD1]	4.42 ± 0.45	4.31 ± 0.42		
WDSFSAWLHCVCVVGFDLELGQAV [DENND6A]	3.04 ± 0.34	3.27 ± 0.68		
WEIAKAEVEKRGINGSEGDGAEIA [DYNC2LI1]	5.26 ± 0.22	5.18 ± 0.27		
WEKKPFSEDVNWGYEKRNLARVPK [CHGB]	3.38 ± 0.3	3.87 ± 0.17		
WGDCSRTCGGGVQFSSRDCTRPVP [ADAMTS4]	2.9 ± 0.95	2.94 ± 0.26		

Sequence	protein stability index [1]	protein stability index [2]	protein stability index [3]	protein stability index [4]
WIDIKQFVWYTPPTFMIAVFLPIV [STEAP1]	2.67 ± 0.36	3.39 ± 0.61		
WLLNNLMTHQNVELFKELSINVMK [GMCL1]	2.28 ± 0.54	2.08 ± 0.3		
WNFEITNQSFNIVDIKPANMEELT [PPP2R2B]	3.4 ± 0.55	3.13 ± 0.65		
WPFSMDCTGTEAHISSCKLGPQVS [LOXL2]	3.02 ± 0.25	3.08 ± 0.34		
WQAKREEEEEEEEEAEAGEEAVPE [CHGA]	5.6 ± 0.47	5.7 ± 0.22		
WQMIEQIQFIKLFGMAKIDNLLQE [HNF4A]	2.9 ± 0.7	2.33 ± 0.33		
YAHQPRTADEIPMEPGDIIGVAGN [FUT8]	4.2 ± 0.24	4.36 ± 0.17		
YANLALSGLIEIQSYPLCIYLINQ [SLC22A15]	3.9 ± 0.46	3.34 ± 0.19		
YDKNIIHKTAGKRYVYRFVCDLQS [ETS1]	2.11 ± 0.17	2.14 ± 0.17		
YHEAPMTRKHYQVTGYGINGTGDS [POMT2]	2.97 ± 0.36	3.42 ± 0.31		
YIFRVANHQKDLFRRTDGRCLIWG [DHCR7]	2.77 ± 0.23	2.35 ± 0.41		
YILLVGYPPFWDEDQHKLYQQIKA [CAMK2B]	2.49 ± 0.57	2.82 ± 0.56		
YLAYINAKSRAEAALEEESRQRQS [SMARCE1]	3.93 ± 0.33	3.75 ± 0.33		
YLDETCTCFVRDGKTYCKRDYVRL [ISL2]	2.68 ± 0.084	2.95 ± 0.3		
YLHPNSYSCACLASGSVLRLVDAV [HDAC6]	2.82 ± 0.36	2.32 ± 0.066		
YLNFIRGVVDSEDLPLNISREMLQ [HSP90AB1]	2.69 ± 0.12	3.09 ± 0.47		
YMYYFQYLSKTYCVDATRETNRLG [KMT5A]	2.67 ± 0.47	2.81 ± 0.66		
YNDGVINLLEKFFEMKKGQCKDAL [SNAP91]	2.31 ± 0.3	2.34 ± 0.2		
YPASIVDEPTFKVLLKTADPRYEL [ZBED1]	2.89 ± 0.26	3.27 ± 0.29		
YPVGWPPVQELPPSLRAPPPGGWP [ZMAT5]	2.39 ± 0.88	2.83 ± 0.69		
YRQVPGSDPARYEFLWGPRAHAEI [MAGEA10]	2.73 ± 0.24	2.91 ± 0.26		
YSFVLTNRGNSAGGLQHRVTAKTA [PTPRD]	2.81 ± 0.29	2.97 ± 0.28		
YSLLYLEHKGWYSWVLSMLYGFLL [CLPTM1]	2.18 ± 0.37	2.26 ± 0.49		
YTGYCWCVTPNGRPISGTAVAHKT [SMOC2]	2.73 ± 0.55	2.51 ± 0.13		
YTSSLACHRALQDAFSGLFWQPS [MNAT1]			2.29 ± 0.51	2.01 ± 0.33
YYERVLKRKTFNKVLGHVNNILIS [GDAP1]	2.35 ± 0.35	2.64 ± 0.7		
